Laboratory results as given in EP4803546A1 (Beijing Wisdomab Biotechnology Co., Ltd, dated 2026).
Read-outs that look alike come from different tables or passages of the source.

How the values were obtained:
[1] = target: T1, MIP-P3-His (disulfide trap single-chain trimer of PRAME antigen peptide … and HLA-A24, His tag) (human); test: SPR, Biacore T200, as in Section 2.3; MIP-P3-His as analyte
T1 construct: Single polypeptide; His tag added at the C-terminus; also called dtSCT; MIP-P3-His fusion protein

[2] = target: HLA-A24 complex with Similar Peptide Segment 12 (…, CPVL) on cells (human; human (homo sapiens)); test: cell-based or functional assay
[3] = target: HLA-A24 complex with Similar Peptide Segment 8 (…, XCR1) on cells (human; human (homo sapiens)); test: cell-based or functional assay
[4] = target: HLA-A24/PRAME complex: PRAME301-309 (…) presented by HLA-A24 on cells (human; human (homo sapiens)); test: cell-based or functional assay
[5] = target: HLA-A24 complex with Similar Peptide Segment 11 (…, KIFBP) on cells (human; human (homo sapiens)); test: cell-based or functional assay
[6] = target: HLA-A24 complex with Similar Peptide Segment 16 (…, PLD1) on cells (human; human (homo sapiens)); test: cell-based or functional assay
[7] = target: T1, MIP-P3-His (disulfide trap single-chain …); test: SPR, Biacore T200, as in Section 2.3; MIP-P3-His as analyte; remark: listed apart in the source
[8] = target: T2, CD3 (recombinant, as analyte of Table 4) (human (homo sapiens), UniProt P07766 23-126; P04234 22-105); test: SPR, Biacore T200, as in Section 2.3; CD3 as analyte
T2 construct: That the analyte was a CD3E/CD3D pair is an inference; also called hCD3E; hCD3D
T2 sequence (P07766 23-126, chain 1 of 2): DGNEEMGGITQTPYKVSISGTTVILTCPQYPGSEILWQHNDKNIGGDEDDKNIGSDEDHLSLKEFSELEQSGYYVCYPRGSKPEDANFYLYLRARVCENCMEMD
T2 sequence (P04234 22-105, chain 2 of 2): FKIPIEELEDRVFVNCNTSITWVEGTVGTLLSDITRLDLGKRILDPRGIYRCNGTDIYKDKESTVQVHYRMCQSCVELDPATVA

| Binder | Kd [1] [nM] | koff [1] [s⁻¹] | kon [1] [M⁻¹ s⁻¹] | EC50 Value (nM) mediating the Activation of Jurkat-Dual Cells [2] [nM] | EC50 Value (nM) mediating the Activation of Jurkat-Dual Cells [3] [nM] | EC50 Value (nM) mediating the Activation of Jurkat-Dual Cells [4] [nM] | EC50 Value (nM) mediating the Activation of Jurkat-Dual Cells [5] [nM] | EC50 Value (nM) mediating the Activation of Jurkat-Dual Cells [6] [nM] | Kd [7] [nM] | koff [7] [s⁻¹] | kon [7] [M⁻¹ s⁻¹] | Kd [8] [nM] | koff [8] [s⁻¹] | kon [8] [M⁻¹ s⁻¹] |
| --- | --- | --- | --- | --- | --- | --- | --- | --- | --- | --- | --- | --- | --- | --- |
| humanized bispecific antibody 2N83G3-h5×IMCR (bispecific antibody, Arm 1 is 2N83G3-h5-G1m3-FcH1n1 (two tandem N83G3-h5 VHH on the hole Fc); Arm 2 is IMCR-scFv-G1m3-FcKn1 (anti-CD3 scFv on the knob Fc); also called 2N83G3-h5×IMCR BsAb) chain 1: EVQLVESGGGLVKPGGSLRLSCAASGASLDIYVMGWYRQAPGKGLELVAVITGSGNTNYADSVKGRFTISRDDSKNTLYLQMNSLKTEDTAVYYCAGGRPSRYYRDSGTWADFWGQGTTVTVSSGGGGSGGGGSGGGGSEVQLVESGGGLVKPGGSLRLSCAASGASLDIYVMGWYRQAPGKGLELVAVITGSGNTNYADSVKGRFTISRDDSKNTLYLQMNSLKTEDTAVYYCAGGRPSRYYRDSGTWADFWGQGTTVTVSSASERKSSVECPPCPAPEFEGGPSVFLFPPKPKDTLMISRTPEVTCVVVDVSQEDPEVQFNWYVDGVEVHNAKTKPREEQYNSTYRVVSVLTVLHQDWLNGKEYKCKVSNKALPASIEKTISKAKGQPREPQVCTLPPSQEEMTKNQVSLSCAVKGFYPSDIAVEWESNGQPENNYKTTPPVLDSDGSFFLVSKLTVDKSRWQEGNVFSCSVMHEALHNHYTQKSLSLSPGK chain 2: not shown | 0.065 | 8.06e-05 | 1.24e+06 | 5.32 | 3.71 | 0.011 | 1.02 | 1.07 | – | – | – | – | – | – |
| N83G3-h5 humanized single-domain antibody (Fc fusion, also called humanized mutant N83G3-h5; humanized molecule N83G3-h5) VHH: EVQLVESGGGLVKPGGSLRLSCAASGASLDIYVMGWYRQAPGKGLELVAVITGSGNTNYADSVKGRFTISRDDSKNTLYLQMNSLKTEDTAVYYCAGGRPSRYYRDSGTWADFWGQGTTVTVSS | – | – | – | – | – | – | – | – | 0.0747 | 5.52e-05 | 737000 | – | – | – |
| bispecific antibody 2N83G3×IMCR (bispecific antibody, Arm 1 is 2N83G3-G1m3-FcH1n1 (two tandem N83G3 VHH on the hole Fc); Arm 2 is IMCR-ScFv-G1m3-FcKn1 (anti-CD3 scFv on the knob Fc); also called 2N83G3×IMCR BsAb) chain 1: QVQLVESGGGLVQAGGSLRLSCAASGASLDIYVMGWYRQATGKERDLVAVITGSGNTNYADSVKGRFTISRDDAKNTLYLQMSSLKPEDTAVYYCAGGRPSRYYRDSGTWADFWGQGTQVTVSSGGGGSGGGGSGGGGSQVQLVESGGGLVQAGGSLRLSCAASGASLDIYVMGWYRQATGKERDLVAVITGSGNTNYADSVKGRFTISRDDAKNTLYLQMSSLKPEDTAVYYCAGGRPSRYYRDSGTWADFWGQGTQVTVSSASERKSSVECPPCPAPEFEGGPSVFLFPPKPKDTLMISRTPEVTCVVVDVSQEDPEVQFNWYVDGVEVHNAKTKPREEQYNSTYRVVSVLTVLHQDWLNGKEYKCKVSNKALPASIEKTISKAKGQPREPQVCTLPPSQEEMTKNQVSLSCAVKGFYPSDIAVEWESNGQPENNYKTTPPVLDSDGSFFLVSKLTVDKSRWQEGNVFSCSVMHEALHNHYTQKSLSLSPGK chain 2: not shown | 0.0544 | 7.65e-05 | 1.41e+06 | – | – | – | – | – | – | – | – | 4.57 | 0.000245 | 53600 |
